Results on six molecules are retold here after patent US20210139548A1 (published 2021).

*1 amine or outer side, *2 acyl side, *3 side chain or, on linkers, in order; H or OH if unused. Side-chain parts run from the residue outwards. The star is where a group is joined. C18 diacid = O=C(O)CCCCCCCCCCCCCCCCC(=O)*; γGlu = O=C(O)[C@H](CCC(=O)[*:2])N[*:1]; Isovaleryl = CC(C)CC(=O)*; AEEA = NCCOCCOCC(=O)O

B1: Compound 166 (peptide)
peptide: Isovaleryl-APEK([AEEA-AEEA-γGlu-C18 diacid])PPADASPEELQRYYVELRHYYNWLTRQRY-NH2
SMILES: CC(C)CC(=O)N[C@@H](C)C(=O)N1CCC[C@H]1C(=O)N[C@@H](CCC(=O)O)C(=O)N[C@@H](CCCCNC(=O)COCCOCCNC(=O)COCCOCCNC(=O)CC[C@H](NC(=O)CCCCCCCCCCCCCCCCC(=O)O)C(=O)O)C(=O)N1CCC[C@H]1C(=O)N1CCC[C@H]1C(=O)N[C@@H](C)C(=O)N[C@@H](CC(=O)O)C(=O)N[C@@H](C)C(=O)N[C@@H](CO)C(=O)N1CCC[C@H]1C(=O)N[C@@H](CCC(=O)O)C(=O)N[C@@H](CCC(=O)O)C(=O)N[C@@H](CC(C)C)C(=O)N[C@@H](CCC(N)=O)C(=O)N[C@@H](CCCNC(=N)N)C(=O)N[C@@H](Cc1ccc(O)cc1)C(=O)N[C@@H](Cc1ccc(O)cc1)C(=O)N[C@H](C(=O)N[C@@H](CCC(=O)O)C(=O)N[C@@H](CC(C)C)C(=O)N[C@@H](CCCNC(=N)N)C(=O)N[C@@H](Cc1c[nH]cn1)C(=O)N[C@@H](Cc1ccc(O)cc1)C(=O)N[C@@H](Cc1ccc(O)cc1)C(=O)N[C@@H](CC(N)=O)C(=O)N[C@@H](Cc1c[nH]c2ccccc12)C(=O)N[C@@H](CC(C)C)C(=O)N[C@H](C(=O)N[C@@H](CCCNC(=N)N)C(=O)N[C@@H](CCC(N)=O)C(=O)N[C@@H](CCCNC(=N)N)C(=O)N[C@@H](Cc1ccc(O)cc1)C(N)=O)[C@@H](C)O)C(C)C
B2: Compound 176 (peptide)
peptide: Isovaleryl-APEK([AEEA-AEEA-γGlu-C18 diacid])PEEDASEEELQRYYVSLRHYYNWLTRQRY-NH2
SMILES: CC(C)CC(=O)N[C@@H](C)C(=O)N1CCC[C@H]1C(=O)N[C@@H](CCC(=O)O)C(=O)N[C@@H](CCCCNC(=O)COCCOCCNC(=O)COCCOCCNC(=O)CC[C@H](NC(=O)CCCCCCCCCCCCCCCCC(=O)O)C(=O)O)C(=O)N1CCC[C@H]1C(=O)N[C@@H](CCC(=O)O)C(=O)N[C@@H](CCC(=O)O)C(=O)N[C@@H](CC(=O)O)C(=O)N[C@@H](C)C(=O)N[C@@H](CO)C(=O)N[C@@H](CCC(=O)O)C(=O)N[C@@H](CCC(=O)O)C(=O)N[C@@H](CCC(=O)O)C(=O)N[C@@H](CC(C)C)C(=O)N[C@@H](CCC(N)=O)C(=O)N[C@@H](CCCNC(=N)N)C(=O)N[C@@H](Cc1ccc(O)cc1)C(=O)N[C@@H](Cc1ccc(O)cc1)C(=O)N[C@H](C(=O)N[C@@H](CO)C(=O)N[C@@H](CC(C)C)C(=O)N[C@@H](CCCNC(=N)N)C(=O)N[C@@H](Cc1c[nH]cn1)C(=O)N[C@@H](Cc1ccc(O)cc1)C(=O)N[C@@H](Cc1ccc(O)cc1)C(=O)N[C@@H](CC(N)=O)C(=O)N[C@@H](Cc1c[nH]c2ccccc12)C(=O)N[C@@H](CC(C)C)C(=O)N[C@H](C(=O)N[C@@H](CCCNC(=N)N)C(=O)N[C@@H](CCC(N)=O)C(=O)N[C@@H](CCCNC(=N)N)C(=O)N[C@@H](Cc1ccc(O)cc1)C(N)=O)[C@@H](C)O)C(C)C
B3: Compound 174 (peptide)
peptide: Isovaleryl-APAK([AEEA-AEEA-γGlu-C18 diacid])PEEDAEPEELQRYYVSLRHYYNWLTRQRY-NH2
SMILES: CC(C)CC(=O)N[C@@H](C)C(=O)N1CCC[C@H]1C(=O)N[C@@H](C)C(=O)N[C@@H](CCCCNC(=O)COCCOCCNC(=O)COCCOCCNC(=O)CC[C@H](NC(=O)CCCCCCCCCCCCCCCCC(=O)O)C(=O)O)C(=O)N1CCC[C@H]1C(=O)N[C@@H](CCC(=O)O)C(=O)N[C@@H](CCC(=O)O)C(=O)N[C@@H](CC(=O)O)C(=O)N[C@@H](C)C(=O)N[C@@H](CCC(=O)O)C(=O)N1CCC[C@H]1C(=O)N[C@@H](CCC(=O)O)C(=O)N[C@@H](CCC(=O)O)C(=O)N[C@@H](CC(C)C)C(=O)N[C@@H](CCC(N)=O)C(=O)N[C@@H](CCCNC(=N)N)C(=O)N[C@@H](Cc1ccc(O)cc1)C(=O)N[C@@H](Cc1ccc(O)cc1)C(=O)N[C@H](C(=O)N[C@@H](CO)C(=O)N[C@@H](CC(C)C)C(=O)N[C@@H](CCCNC(=N)N)C(=O)N[C@@H](Cc1c[nH]cn1)C(=O)N[C@@H](Cc1ccc(O)cc1)C(=O)N[C@@H](Cc1ccc(O)cc1)C(=O)N[C@@H](CC(N)=O)C(=O)N[C@@H](Cc1c[nH]c2ccccc12)C(=O)N[C@@H](CC(C)C)C(=O)N[C@H](C(=O)N[C@@H](CCCNC(=N)N)C(=O)N[C@@H](CCC(N)=O)C(=O)N[C@@H](CCCNC(=N)N)C(=O)N[C@@H](Cc1ccc(O)cc1)C(N)=O)[C@@H](C)O)C(C)C
B4: Compound 169 (peptide)
peptide: Isovaleryl-APEK([AEEA-AEEA-γGlu-C18 diacid])PEEEASPEELQRYYVALRHYYNWLTRQRY-NH2
SMILES: CC(C)CC(=O)N[C@@H](C)C(=O)N1CCC[C@H]1C(=O)N[C@@H](CCC(=O)O)C(=O)N[C@@H](CCCCNC(=O)COCCOCCNC(=O)COCCOCCNC(=O)CC[C@H](NC(=O)CCCCCCCCCCCCCCCCC(=O)O)C(=O)O)C(=O)N1CCC[C@H]1C(=O)N[C@@H](CCC(=O)O)C(=O)N[C@@H](CCC(=O)O)C(=O)N[C@@H](CCC(=O)O)C(=O)N[C@@H](C)C(=O)N[C@@H](CO)C(=O)N1CCC[C@H]1C(=O)N[C@@H](CCC(=O)O)C(=O)N[C@@H](CCC(=O)O)C(=O)N[C@@H](CC(C)C)C(=O)N[C@@H](CCC(N)=O)C(=O)N[C@@H](CCCNC(=N)N)C(=O)N[C@@H](Cc1ccc(O)cc1)C(=O)N[C@@H](Cc1ccc(O)cc1)C(=O)N[C@H](C(=O)N[C@@H](C)C(=O)N[C@@H](CC(C)C)C(=O)N[C@@H](CCCNC(=N)N)C(=O)N[C@@H](Cc1c[nH]cn1)C(=O)N[C@@H](Cc1ccc(O)cc1)C(=O)N[C@@H](Cc1ccc(O)cc1)C(=O)N[C@@H](CC(N)=O)C(=O)N[C@@H](Cc1c[nH]c2ccccc12)C(=O)N[C@@H](CC(C)C)C(=O)N[C@H](C(=O)N[C@@H](CCCNC(=N)N)C(=O)N[C@@H](CCC(N)=O)C(=O)N[C@@H](CCCNC(=N)N)C(=O)N[C@@H](Cc1ccc(O)cc1)C(N)=O)[C@@H](C)O)C(C)C
B5: Compound 170 (peptide)
peptide: Isovaleryl-APEK([AEEA-AEEA-γGlu-C18 diacid])PEEEASPEELEQYYVSLRHYYNWLTRQRY-NH2
SMILES: CC(C)CC(=O)N[C@@H](C)C(=O)N1CCC[C@H]1C(=O)N[C@@H](CCC(=O)O)C(=O)N[C@@H](CCCCNC(=O)COCCOCCNC(=O)COCCOCCNC(=O)CC[C@H](NC(=O)CCCCCCCCCCCCCCCCC(=O)O)C(=O)O)C(=O)N1CCC[C@H]1C(=O)N[C@@H](CCC(=O)O)C(=O)N[C@@H](CCC(=O)O)C(=O)N[C@@H](CCC(=O)O)C(=O)N[C@@H](C)C(=O)N[C@@H](CO)C(=O)N1CCC[C@H]1C(=O)N[C@@H](CCC(=O)O)C(=O)N[C@@H](CCC(=O)O)C(=O)N[C@@H](CC(C)C)C(=O)N[C@@H](CCC(=O)O)C(=O)N[C@@H](CCC(N)=O)C(=O)N[C@@H](Cc1ccc(O)cc1)C(=O)N[C@@H](Cc1ccc(O)cc1)C(=O)N[C@H](C(=O)N[C@@H](CO)C(=O)N[C@@H](CC(C)C)C(=O)N[C@@H](CCCNC(=N)N)C(=O)N[C@@H](Cc1c[nH]cn1)C(=O)N[C@@H](Cc1ccc(O)cc1)C(=O)N[C@@H](Cc1ccc(O)cc1)C(=O)N[C@@H](CC(N)=O)C(=O)N[C@@H](Cc1c[nH]c2ccccc12)C(=O)N[C@@H](CC(C)C)C(=O)N[C@H](C(=O)N[C@@H](CCCNC(=N)N)C(=O)N[C@@H](CCC(N)=O)C(=O)N[C@@H](CCCNC(=N)N)C(=O)N[C@@H](Cc1ccc(O)cc1)C(N)=O)[C@@H](C)O)C(C)C
B6: Compound 173 (peptide)
peptide: Isovaleryl-APAK([AEEA-AEEA-γGlu-C18 diacid])PEEDASPEELQRYYVELRHYYNWLTRQRY-NH2
SMILES: CC(C)CC(=O)N[C@@H](C)C(=O)N1CCC[C@H]1C(=O)N[C@@H](C)C(=O)N[C@@H](CCCCNC(=O)COCCOCCNC(=O)COCCOCCNC(=O)CC[C@H](NC(=O)CCCCCCCCCCCCCCCCC(=O)O)C(=O)O)C(=O)N1CCC[C@H]1C(=O)N[C@@H](CCC(=O)O)C(=O)N[C@@H](CCC(=O)O)C(=O)N[C@@H](CC(=O)O)C(=O)N[C@@H](C)C(=O)N[C@@H](CO)C(=O)N1CCC[C@H]1C(=O)N[C@@H](CCC(=O)O)C(=O)N[C@@H](CCC(=O)O)C(=O)N[C@@H](CC(C)C)C(=O)N[C@@H](CCC(N)=O)C(=O)N[C@@H](CCCNC(=N)N)C(=O)N[C@@H](Cc1ccc(O)cc1)C(=O)N[C@@H](Cc1ccc(O)cc1)C(=O)N[C@H](C(=O)N[C@@H](CCC(=O)O)C(=O)N[C@@H](CC(C)C)C(=O)N[C@@H](CCCNC(=N)N)C(=O)N[C@@H](Cc1c[nH]cn1)C(=O)N[C@@H](Cc1ccc(O)cc1)C(=O)N[C@@H](Cc1ccc(O)cc1)C(=O)N[C@@H](CC(N)=O)C(=O)N[C@@H](Cc1c[nH]c2ccccc12)C(=O)N[C@@H](CC(C)C)C(=O)N[C@H](C(=O)N[C@@H](CCCNC(=N)N)C(=O)N[C@@H](CCC(N)=O)C(=O)N[C@@H](CCCNC(=N)N)C(=O)N[C@@H](Cc1ccc(O)cc1)C(N)=O)[C@@H](C)O)C(C)C

This assay deals with T1, human neuropeptide Y2 receptor (human, UniProt P49146 1-381).
T1 construct: whole, on cells; also called hNPY2 receptor; hNPY2-R
T1 sequence (looked up): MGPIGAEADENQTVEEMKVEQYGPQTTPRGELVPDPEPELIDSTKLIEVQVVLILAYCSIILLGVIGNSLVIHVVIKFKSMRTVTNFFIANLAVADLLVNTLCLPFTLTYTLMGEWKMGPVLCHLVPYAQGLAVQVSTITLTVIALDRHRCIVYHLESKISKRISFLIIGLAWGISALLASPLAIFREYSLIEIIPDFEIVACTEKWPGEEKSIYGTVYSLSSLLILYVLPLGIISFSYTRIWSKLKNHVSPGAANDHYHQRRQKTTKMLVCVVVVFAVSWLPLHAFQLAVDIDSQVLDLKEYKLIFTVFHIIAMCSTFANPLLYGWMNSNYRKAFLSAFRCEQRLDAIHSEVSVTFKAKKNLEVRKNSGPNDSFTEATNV
In words: radioligand competition (125I-PYY(1-36)), hNPY2R membranes. In a few lines: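 Commercial human Y2 receptor membranes (0.5 μg protein/well) were incubated with peptide for 2 h at room temperature in 50 mM HEPES, 5 mM MgCl₂, 1 mM CaCl₂, pH 7.4, with 0.2% ovalbumin. Bound radioligand was separated on PEI-soaked GF/C filters and counted by scintillation, and IC₅₀ came from nonlinear sigmoidal regression.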
The molecule B1 came in with a Ki of 0.66 nM. B2 came in with a Ki of 3.05 nM. With B3 the figure was 3.89 nM; with B4, 2.34 nM; with B5, 12.3 nM. In turn, B6 returned a Ki of 1.71 nM.
